From patent publication US11981740B2, “BAFF-R antibodies and uses thereof” (CITY OF HOPE, priority 2016, dated 2024)

What was measured:
[1] = tested on: ibrutinib-resistant Z-138; assay: In vivo ibrutinib-resistant Z-138 xenograft; design: species or system NSG mice; settings: Z-138 tumor-bearing mice; compared with PBS or NK only
Description: (§1) FIGS. 6A and 6B are images and FIG. 6C are graphs showing chimeric antibodies targeting human BAFF-R elicited in vivo therapeutic effects against drug resistant B-cell tumors. Bioluminescence images of mice challenged with luciferase-expressing tumors JeKo-1-CD20-KO cells (FIG. 6A) or ibrutinib-resistant Z-138 cells (FIG. 6B) followed by antibody treatments as in FIG. 4. Control group mice received PBS, NK cells alone, or rituximab on the same schedule. […] Tumor free rate and survival differences between experimental and all control groups were analyzed by log-rank test (**P<0.001). Data are representative of three independent experiments.
(§2) In vivo studies. For tumor models, stable, luciferase-expressing tumors lines were established for bioluminescent imaging in mouse models. Briefly, a luciferase gene was introduced into tumor lines by a lentivirus gene delivery system (pLenti7.3/V5-DEST Gateway Vector Kit, Life Technologies, Carlsbad, CA). The minimum lethal dose per mouse was determined for each tumor cell line by dose titration. Tumor cells were injected intravenously (IV) and mice were monitored by in vivo bioluminescence imaging for minimum tumor dose to ensure engraftment. Minimum lethal tumor doses were: 1×10^6 JeKo-1, 5×10^5 RS4; 11, 5×10^5 JeKo-1-CD20-KO, or 2.5×10^4 Z-138 cells. […]

[2] = tested on: Mino cells; assay: Antibody internalization by flow cytometry; format: cell-based; settings: 37° C. for 1 hour
Description: Mino cells were incubated with mAb C90 (0.05 μg/10^6 cells) at 4° C. for 20 minutes followed by incubation at 37° C. for 1 hour. Flow cytometry analysis was performed with anti-mouse IgG-APC. Cells were gated for surface localized antibodies (OUT) and loss of cell surface staining (IN).

[3] = tested on: JeKo-1 (MCL), SU-DHL-6 (DLBCL), Raji (Burkitt lymphoma), and RL (FL); assay: Flow cytometry binding to NHL cell lines; design: species or system human; settings: chimeric antibodies conjugated to Alexa Fluor 488
Description: FIGS. 1A, 1B, 1C, 1D and 1E are FACS images showing generation and specificity of novel monoclonal antibodies against human BAFF-R. FIG. 1A is a FACS analysis of cell surface expression of hBAFF-R-GFP fusion protein in mouse fibroblast L cells. Gated on GFP-positive cells, engineered L cell clone (right plot) is compared to parental L cells (left plot). Clone D2C was selected for further studies. FIGS. 1B, 1C, 1D and 1E are FACS traces of fluorescent counts of anti-BAFF-R antibodies binding cell lines and patient samples. […] BAFF-R-negative 293T embryonic kidney cell line was used as a control. […] Parental L cells and secondary anti-hIgG-APC antibodies only were used as controls. […] The data are representative of three independent experiments. For all of FIGS. 1B-1E, the traces from top to bottom as shown in the figures correlate with the variables (e.g., antibody type or cell type) used from top to bottom shown below or next to the figures.
FIG. 10 are results of FACS analyses showing hBAFF-R mAbs recognized non-Hodgkin lymphoma cell lines in vitro. […] The traces from top to bottom as shown in the figures correlate with the variables (e.g., antibody type or cell type) used from top to bottom shown next to the figures.

[4] = tested on: JeKo-1-CD20-KO clone 25; assay: ADCC on rituximab-resistant JeKo-1-CD20-KO; format: cell-based; settings: E:T=20:1
Description: FIGS. 5A, 5B and 5C are images or graphs showing chimeric BAFF-R antibodies induce ADCC on drug resistant lymphoma models in vitro. FIG. 5A is a scatterplot of FACS analysis showing CD20 binding on JeKo-1 cells following CRISPR/HDR knock-out of CD20 gene. CD20 expression on selected CD20−/−clone #25 compared to WT JeKo-1. ADCC effects measured by chromium-51 release after incubation with C55, C90, or rituximab and effectors NK cells (E:T=20:1). Percentage of cell specific lysis of target cells: rituximab-resistant JeKo-1-CD20-KO (FIG. 5B) and ibrutinib-resistant Z-138 and SP49-IR (FIG. 5C). All data are representative of two or more identical experiments. Data are shown as the mean±s.d. of triplicate samples. *P<0.05 compared with NK cells by two-tailed Student's t-test.
(§3) Cytotoxicity assays. Target cells (L cells, human tumor lines, primary patient samples) were labeled with chromium-51 (51Cr, Perkin Elmer, Waltham, MA) for a 51Cr release assay. Briefly, antibodies and effectors (NK cells or complement serum standard [Sigma Aldrich, St. Louis, MO]), were added to labeled target cells and incubated up to 18 hours. NK cells were enriched from PBMC (NK cell enrichment kit, Stemcell Technologies, Vancouver, Canada). 51Cr released into supernatant was detected with a Wizard Automatic Gamma Counter (Perkin Elmer).
Generation of JeKo-1-CD20-KO. […]

[5] = tested on: primary CLL (n=3) and MCL (n=2) samples; assay: ADCC on primary samples from rituximab-treated patients; format: cell-based, human; settings: patients previously treated with rituximab; E:T=20:1
Description: FIGS. 3A and 3B are graphs showing BAFF-R monoclonal antibodies induce in vitro Antibody Dependent Cell-Mediated Cytotoxicity (ADCC) against primary B-cell tumors. Antibody-dependent cell-mediated cytotoxicity (ADCC) effects were measured by chromium-51 release after incubation with C55, C90, or rituximab and effectors (NK cells). […] Data are shown as the mean±s.d. of triplicate samples. *P<0.05 compared with NK cells by two-tailed Student's t-test.
as §3

[6] = tested on: JeKo-1-CD20-KO tumor cells; assay: In vivo JeKo-1-CD20-KO xenograft; design: species or system NSG mice
Description: as §1, §2

[7] = tested on: RS4; 11 (acute lymphoblastic leukemia, ALL); assay: In vivo RS4;11 ALL xenograft, bioluminescence imaging; settings: RS4;11 challenged NSG mice
Description: (§4) FIG. 4A is a schematic showing treatment schedule following Day 0 tumor challenge with minimum lethal dose of tumors. Treatments were given by IV tail vein injections. FIGS. 4B and 4C are images showing chimeric antibodies targeting human BAFF-R elicited in vivo therapeutic effects against B-cell tumors. Bioluminescence images of mice challenged with luciferase-expressing tumors: JeKo-1 (MCL) (FIG. 4B) or RS4; 11 (ALL) (FIG. 4C). Experimental groups received treatment of chimeric BAFF-R mAbs (C55 or C90, as indicated). Control group mice received PBS, NK cells alone, or rituximab on the same schedule. Data are representative of three independent experiments.
as §2

[8] = tested on: BAFF-R-expressing L cells and JeKo-1; assay: ADCC chromium-51 release assay, L cells, JeKo-1, U266; format: cell-based; settings: NK cells E:T 20:1; BAFF-R positive vs negative targets
Description: Antibody-induced cytotoxicities measured by chromium-51 release after incubation with C55, C90, or rituximab and effectors (NK cells or complement containing serum). NK effector cell to target ratio (E:T) of 20:1. […] Data are shown as the mean±s.d. of triplicate samples. *P<0.05 compared with NK cells by two-tailed Student's t-test.
FIG. 12 is a graph showing chimeric antibodies induced ADCC against BAFF-R expressing L cells. BAFF-R-expressing D2C L cells (targets) were labeled with chromium-51 followed by incubation overnight with chimeric mAb+NK cells (effector to target ratio, 20:1). Culture supernatant was analyzed for released chromium.
as §3

[9] = tested on: JeKo-1 MCL cell line; assay: In vivo JeKo-1 MCL xenograft, bioluminescence imaging; design: species or system NSG mice; settings: compared with PBS or NK cells alone
Description: as §4, §2

B1: C55: chimeric anti-BAFF-R mAb from clone 55 containing human IgG1 constant regions (antibody, V domains shown)
VH: QVTLKESGPGILKPSQTLSLTCSFSGFSLSTSGMGVGWIRQPSGKGLEWLAHIWWDDDKYYNSSLKSHLTISKDTSRNQVFLKITSVDTADTATYYCARSFGYGLDYWGQGTTLTVSSAS
VL: DIQMTQTTSSLSASLGDRVTISCSASQDISNYLNWYQQKPDGTVKLLIYYTSSLHSGVPSRFSGSGSGTDYSLTISSLEPEDIATYYCHQFSELPWTFGGGTKLEIKRT
**Q.** With B1 as the molecule, how does the antitumor effects [1] read?
**A.** significant effects were observed

**Q.** What about the “internalization upon binding BAFF-R” value [2] of the same molecule?
**A.** limited internalization

**Q.** And the “direct binding to NHL lines” value [3]?
**A.** exhibited direct binding

**Q.** What about the “sensitivity to antibody-mediated cytotoxicity” value [4] of the same molecule?
**A.** retained sensitivity

**Q.** And the “ADCC killing of primary samples” value [5]?
**A.** sensitive to killing by ADCC

**Q.** And the “tumor free and long-term overall survival” value ([6]; 80-day curves)?
**A.** significant antitumor effects

**Q.** And the “tumor burden by bioluminescent imaging” value ([6]; Day 20)?
**A.** no visible tumors

**Q.** What about the tumor growth [7] of the same molecule?
**A.** markedly retarded tumor growth

**Q.** What about the “antibody-dependent cell-mediated cytotoxicity (ADCC)” value [8] of the same molecule?
**A.** specifically against BAFF-R-expressing L cells and JeKo-1, but not BAFF-R negative L cells nor the BAFF-R negative human multiple myeloma line, U266

**Q.** What about the tumor growth [9] of the same molecule?
**A.** significant retardation of tumor growth
